Our source for the binding signal (fold weaker than P1+P2) values is publication PMC7337906.

The series has as its target T1, Tof1(613-728) minimal;Csm3(48-157) internal_change (Chaetomium thermophilum;Chaetomium thermophilum) (UniProt G0S825+Q2H3R6).
T1 sequence 1: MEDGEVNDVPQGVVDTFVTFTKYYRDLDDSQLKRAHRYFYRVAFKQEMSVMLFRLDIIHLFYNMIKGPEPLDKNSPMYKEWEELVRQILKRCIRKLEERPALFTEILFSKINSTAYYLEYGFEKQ
T1 sequence 2: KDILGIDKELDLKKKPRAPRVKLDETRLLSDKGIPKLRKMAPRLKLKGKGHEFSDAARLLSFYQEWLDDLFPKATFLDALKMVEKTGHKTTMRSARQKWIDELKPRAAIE
Briefly: EMSA. To be noted: HBS-200 (20 mM HEPES pH 7.5, 200 mM NaCl, 1 mM TCEP) + 10% glycerol, 50 nM DNA, 30 min on ice; 6% polyacrylamide tris-glycine gel. Background: In EMSA bound probe runs differently from free probe, usually more slowly.

Turning to “GTAGTTTGTACTGGTGACGA (double strand) [dsDNA 20 bp]”, the binding signal (fold weaker than P1+P2) came to 2.
